Assay results reported in publication PMC9856783, “Identification and Characterization of Aptamers Targeting Ovarian Cancer Biomarker Human Epididymis Protein 4 for the Application in Urine”.

T1: Human epididymis protein 4 (HE4) (human, UniProt Q14508 31-124)
T1 sequence: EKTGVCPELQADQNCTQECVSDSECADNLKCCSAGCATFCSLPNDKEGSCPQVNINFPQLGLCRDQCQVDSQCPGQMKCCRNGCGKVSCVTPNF


Assays:
[1] = molecular target: T1, Human epididymis protein 4 (HE4); test: thermofluorimetric analysis (SYBR Gold); preliminary data, urine; 100 nM DNA, 0-800 nM HE4, 1/125 diluted artificial urine, 1x SYBR Gold, protein buffer (10.1 mM Na2HPO4, 137 mM NaCl, 2.7 mM KCl, 1.8 mM KH2PO4, 1 mM MgCl2); pH; conditions: protein: commercial; tags: 6xHis; label: SYBR Gold dye (non-covalent)
[2] = molecular target: T1, Human epididymis protein 4 (HE4); test: thermofluorimetric analysis (SYBR Gold); 1/125 artificial urine; HE4 up to 800 nM; 100 nM DNA, 0-800 nM HE4, 1/125 diluted artificial urine, 1x SYBR Gold, protein buffer (10.1 mM Na2HPO4, 137 mM NaCl, 2.7 mM KCl, 1.8 mM KH2PO4, 1 mM MgCl2); pH; conditions: protein: commercial; tags: 6xHis; label: SYBR Gold dye (non-covalent)

Row | Binder | binding result [1] | binding result [2]
1 | AHE2 (ssDNA) DNA: TCGCACATTCCGCTTCTACCGCCAACATCGTACTCCATCTGCCACCCCCACGTAAGTCCGTGTGTGCGAA | no binding | –
2 | Scramble aptamer DNA (ssDNA) DNA: ATCGCGTCCGTCAATTACCTACGCTGCACCACTTATGAGCCGGTATCGCCATCCGTCAACTCACGCCTCC | – | no binding
